Test results: publication PMC10855866, “Structural Analysis of Breast-Milk αS1-Casein: An α-Helical Conformation Is Required for TLR4-Stimulation” (International Journal of Molecular Sciences, 2024)
Each block holds one molecule with its values, some of them ahead of it.

Assays:
αS1-casein (Bos taurus) = αS1-casein (Bos taurus) (UniProt P02662); test: SPR; conditions: cited from earlier work
[1] = target: T1, Toll-like receptor 4 (TLR4) (UniProt O00206 24-839); test: cell-based or functional assay
[2] = target: T1, Toll-like receptor 4 (TLR4); test: flow cytometry on cells; TLR4+ cells (HEK293 transfected with TLR4/MD2/CD14) and TLR4- cells incubated 24 h with 500 nM αS1-casein or a truncated variant; detected with murine anti-His6 IgG and Dylight633 anti-murine IgG; conditions: one partner purified
[3] = target: the molecule itself; test: SPR; αS1-casein or P-αS1-casein immobilised on a CMDP-5 chip (450 µRIU); the same protein injected at 0.625 to 5 µM in 10 mM HEPES, 150 mM NaCl, pH 7.2 (5 min, 5 µL/min); KD could be due to a mixture of dimer, tetramer and higher oligomer
[4] = target: the molecule itself; test: MST; FITC-αS1-casein (25 nM) mixed with unlabelled αS1-casein in serial dilution; sonicated 15 min, incubated 1 h at 37 °C; 20 mM HEPES pH 7.2, 0.5% BSA, 0.0025% Tween-20; oligomer step not resolved
[5] = target: Toll-like receptor 4 (TLR4) (UniProt O00206)
Toll-like receptor 4 (TLR4) (UniProt O00206), sequence (O00206 24-839): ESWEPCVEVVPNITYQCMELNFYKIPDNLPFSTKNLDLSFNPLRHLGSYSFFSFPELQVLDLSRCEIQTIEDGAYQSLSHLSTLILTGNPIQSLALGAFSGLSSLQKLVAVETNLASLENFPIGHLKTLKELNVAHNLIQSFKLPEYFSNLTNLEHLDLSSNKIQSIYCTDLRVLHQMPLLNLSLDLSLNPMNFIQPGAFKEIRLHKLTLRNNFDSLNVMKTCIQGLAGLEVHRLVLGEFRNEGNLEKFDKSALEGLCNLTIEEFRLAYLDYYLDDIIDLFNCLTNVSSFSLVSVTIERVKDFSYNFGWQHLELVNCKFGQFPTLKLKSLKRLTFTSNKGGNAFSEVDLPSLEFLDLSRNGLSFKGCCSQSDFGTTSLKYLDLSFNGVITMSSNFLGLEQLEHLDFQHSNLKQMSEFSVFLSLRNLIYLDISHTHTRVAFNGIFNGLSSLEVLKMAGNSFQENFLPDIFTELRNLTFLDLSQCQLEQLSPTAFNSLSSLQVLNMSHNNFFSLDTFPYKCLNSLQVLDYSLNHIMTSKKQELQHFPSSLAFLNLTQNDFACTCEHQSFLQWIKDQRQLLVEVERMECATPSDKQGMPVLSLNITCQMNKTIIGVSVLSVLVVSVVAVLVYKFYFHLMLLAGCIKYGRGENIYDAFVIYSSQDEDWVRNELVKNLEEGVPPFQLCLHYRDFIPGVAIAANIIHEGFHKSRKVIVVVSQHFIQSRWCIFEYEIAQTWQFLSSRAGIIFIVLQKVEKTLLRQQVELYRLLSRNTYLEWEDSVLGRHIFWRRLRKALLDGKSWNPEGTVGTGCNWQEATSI

T1 sequence (O00206 24-839): as above
αS1-casein (Bos taurus), sequence (P02662 16-214): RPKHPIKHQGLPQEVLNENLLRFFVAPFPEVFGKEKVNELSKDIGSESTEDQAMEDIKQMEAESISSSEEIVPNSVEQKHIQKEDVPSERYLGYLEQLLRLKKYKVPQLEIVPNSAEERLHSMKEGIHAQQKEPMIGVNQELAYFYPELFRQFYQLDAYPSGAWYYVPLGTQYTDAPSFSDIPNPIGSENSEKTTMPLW

Molecule: αS1-casein (from UniProt P02662)
Kd (αS1-casein (Bos taurus)): 2000 nM

B1: αS1-casein truncated variant N4 (domain or fragment, human, UniProt P47710 93-185, looked up)
chain: EMSLSKCAEQFCRLNEYNQLQLQAAHAQEQIRRMNENSHVQVPFQQLNQLAAYPYAVWYYPQIMQYVPFPPFSDISNPTAHENYEKNNVMLQW
IL-8 secretion of TLR4+ cells after 24 h with 15 nM protein (sandwich ELISA) [1]: -2.5 ng/mL

B3: αS1-casein truncated variant N2 (domain or fragment, human, UniProt P47710 57-185, looked up)
chain: REKQTDEIKDTRNESTQNCVVAEPEKMESSISSSSEEMSLSKCAEQFCRLNEYNQLQLQAAHAQEQIRRMNENSHVQVPFQQLNQLAAYPYAVWYYPQIMQYVPFPPFSDISNPTAHENYEKNNVMLQW
IL-8 secretion of TLR4+ cells after 24 h with 15 nM protein (sandwich ELISA) [1]: 4.8 ng/mL

B6: in vitro phosphorylated αS1-casein (P-αS1-casein) (natural protein, human, UniProt P47710 16-185, looked up)
chain: RPKLPLRYPERLQNPSESSEPIPLESREEYMNGMNRQRNILREKQTDEIKDTRNESTQNCVVAEPEKMESSISSSSEEMSLSKCAEQFCRLNEYNQLQLQAAHAQEQIRRMNENSHVQVPFQQLNQLAAYPYAVWYYPQIMQYVPFPPFSDISNPTAHENYEKNNVMLQW
modifications: phosphorylated in vitro; the sites of this preparation are not stated
notes: human αS1-casein (CSN1S1), the recombinant protein of m1 after in vitro phosphorylation; source: phosphorylated in vitro
Kd [3]: 500 nM

Molecule: VAEPEKMESSISSSSE [synthetic peptide V77-E92 of αS1-casein]
IL-8 secretion of TLR4+ cells after 24 h with 1.5 µM peptide (sandwich ELISA) [5]: 0.95 ng/mL

B7: αS1-casein truncated variant C1 (domain or fragment, human, UniProt P47710 16-163, looked up)
chain: RPKLPLRYPERLQNPSESSEPIPLESREEYMNGMNRQRNILREKQTDEIKDTRNESTQNCVVAEPEKMESSISSSSEEMSLSKCAEQFCRLNEYNQLQLQAAHAQEQIRRMNENSHVQVPFQQLNQLAAYPYAVWYYPQIMQYVPFPP
notes: human αS1-casein, residues 16-163; Amplified from pET TS001, which codes for an N-terminal His6 tag; also called pET C1; source: E. coli, purified (NTA column chromatography); not shown: His6, C-terminal, kept
IL-8 secretion of TLR4+ cells after 24 h with 15 nM protein (sandwich ELISA) [1]: 5.2 ng/mL | fluorescence intensity on TLR4+ cells over TLR4- cells (fold) [2]: 2.3 fold

Second part, led by results:

IL-8 secretion of TLR4+ cells after 24 h with 15 nM protein (sandwich ELISA) [1]: 5.2 ng/mL | fluorescence intensity on TLR4+ cells over TLR4- cells (fold) [2]: 2.2 fold
B2: αS1-casein truncated variant C2 (domain or fragment, human, UniProt P47710 16-145, looked up)
chain: RPKLPLRYPERLQNPSESSEPIPLESREEYMNGMNRQRNILREKQTDEIKDTRNESTQNCVVAEPEKMESSISSSSEEMSLSKCAEQFCRLNEYNQLQLQAAHAQEQIRRMNENSHVQVPFQQLNQLAAY
notes: human αS1-casein, residues 16-145; Amplified from pET TS001, which codes for an N-terminal His6 tag; also called pET C2; source: E. coli, purified (NTA column chromatography); not shown: His6, C-terminal, kept

IL-8 secretion of TLR4+ cells after 24 h with 15 nM protein (sandwich ELISA) [1]: 7.5 ng/mL
B4: αS1-casein truncated variant N1 (domain or fragment, human, UniProt P47710 35-185, looked up)
chain: EPIPLESREEYMNGMNRQRNILREKQTDEIKDTRNESTQNCVVAEPEKMESSISSSSEEMSLSKCAEQFCRLNEYNQLQLQAAHAQEQIRRMNENSHVQVPFQQLNQLAAYPYAVWYYPQIMQYVPFPPFSDISNPTAHENYEKNNVMLQW

IL-8 secretion of TLR4+ cells after 24 h with 15 nM protein (sandwich ELISA) [1]: 23.3 ng/mL
B5: recombinant human αS1-casein (natural protein, UniProt P47710 16-185, looked up)
chain: RPKLPLRYPERLQNPSESSEPIPLESREEYMNGMNRQRNILREKQTDEIKDTRNESTQNCVVAEPEKMESSISSSSEEMSLSKCAEQFCRLNEYNQLQLQAAHAQEQIRRMNENSHVQVPFQQLNQLAAYPYAVWYYPQIMQYVPFPPFSDISNPTAHENYEKNNVMLQW
notes: human αS1-casein (CSN1S1), from plasmid pET TS001; C1 and C2, made from the same plasmid, begin at residue 16 and N1-N4 end at 185, so it probably lacks the signal peptide (1-15); Not phosphorylated (made in E. coli); also called full-length αS1-casein; full-size αS1-casein; source: E. coli, purified (NTA column chromatography); not shown: His6, N-terminal, kept
Kd [3]: 2000 nM | stoichiometry N [3]: 4 | Kd [4]: 2200 nM
